The values that follow come from patent US20140219913A1 (AbbVie / Abbott, published 2014).

T1: Recombinant human B7-1/CD80 Fc chimera (Cat. 140-B1-100, R&D Systems) (human, UniProt P33681 35-242)
T1 construct: extracellular domain; also called B7-1 antigen; Fc part of the bought chimera not given; not described
T1 sequence (looked up): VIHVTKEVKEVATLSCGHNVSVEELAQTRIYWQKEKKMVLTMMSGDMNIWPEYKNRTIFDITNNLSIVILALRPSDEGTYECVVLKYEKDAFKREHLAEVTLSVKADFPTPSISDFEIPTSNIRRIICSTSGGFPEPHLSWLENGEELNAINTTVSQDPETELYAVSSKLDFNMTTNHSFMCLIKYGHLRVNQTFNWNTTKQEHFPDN

T2: Recombinant human B7-2/CD86 Fc chimera (Cat. 141-B2-100, R&D Systems) (human, UniProt P42081 26-245)
T2 construct: Fc part of the bought chimera not given; not described
T2 sequence (looked up): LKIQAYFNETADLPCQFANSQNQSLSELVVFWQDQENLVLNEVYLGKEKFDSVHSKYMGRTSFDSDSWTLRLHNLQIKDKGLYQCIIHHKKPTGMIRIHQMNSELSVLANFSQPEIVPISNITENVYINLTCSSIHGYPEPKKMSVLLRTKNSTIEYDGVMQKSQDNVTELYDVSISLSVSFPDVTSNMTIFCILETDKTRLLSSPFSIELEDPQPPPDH

B1: Anti-NGF (antibody, V domains shown)
VH: QVQLQESGPGLVKPSETLSLTCTVSGFSLIGYDLNWIRQPPGKGLEWIGIIWGDGTTDYNSAVKSRVTISKDTSKNQFSLKLSSVTAADTAVYYCARGGYWYATSYYFDYWGQGTLVTVSS
VL: DIQMTQSPSSLSASVGDRVTITCRASQSISNNLNWYQQKPGKAPKLLIYYTSRFHSGVPSRFSGSGSGTDFTFTISSLQPEDIATYYCQQEHTLPYTFGQGTKLEIKR
B2: RAB021 (other)
VH: EVQLVQSGAEVKKPGASVKVSCKASGYTFTKYWLGWVRQAPGQGLEWMGDIYPGYDYTHYNEKFKDRVTLTTDTSTSTAYMELRSLRSDDTAVYYCARSDGSSTYWGQGTLVTVSS
VL: AMHVAQPAVVLASSRGIASFVCEYASPGKYTEVRVTVLRQADSQVTEVCAATYMMGNELTFLDDSICTGTSSGNQVNLTIQGLRAMDTGLYICKVELMYPPPYYEGIGNGTQIYVIDPEPCPDSDQEPKSSDKTHTSPDVLMTQTPLSLPVTPGEPASISCTSSQNIVHSNGNTYLEWYLQKPGQSPQLLIYKVSNRFSGVPDRFSGSGSGTDFTLKISRVEAEDVGVYYCFQVSHVPYTFGGGTKVEIKR
notes: rDVD-Ig with LEA29Y on the light chain only and a QH linker; also called RAB021H; RAB021L
B3: RAB015 (other)
VH: B2 VH
VL: AMHVAQPAVVLASSRGIASFVCEYASPGKYTEVRVTVLRQADSQVTEVCAATYMMGNELTFLDDSICTGTSSGNQVNLTIQGLRAMDTGLYICKVELMYPPPYYEGIGNGTQIYVIDPEPCPDSDTVAAPSVFIFPPDVLMTQTPLSLPVTPGEPASISCTSSQNIVHSNGNTYLEWYLQKPGQSPQLLIYKVSNRFSGVPDRFSGSGSGTDFTLKISRVEAEDVGVYYCFQVSHVPYTFGGGTKVEIKR
notes: rDVD-Ig with LEA29Y on the light chain only and a long linker; also called RAB015H; RAB015L
B4: RAB019 (other)
VH: AMHVAQPAVVLASSRGIASFVCEYASPGKYTEVRVTVLRQADSQVTEVCAATYMMGNELTFLDDSICTGTSSGNQVNLTIQGLRAMDTGLYICKVELMYPPPYYEGIGNGTQIYVIDPEPCPDSDQEPKSSDKTHTSPEVQLVQSGAEVKKPGASVKVSCKASGYTFTKYWLGWVRQAPGQGLEWMGDIYPGYDYTHYNEKFKDRVTLTTDTSTSTAYMELRSLRSDDTAVYYCARSDGSSTYWGQGTLVTVSS
VL: B2 VL
notes: rDVD-Ig with LEA29Y on both chains and QH linkers; also called RAB019H; RAB019L
B5: RAB007 (other)
VH: AMHVAQPAVVLASSRGIASFVCEYASPGKYTEVRVTVLRQADSQVTEVCAATYMMGNELTFLDDSICTGTSSGNQVNLTIQGLRAMDTGLYICKVELMYPPPYYEGIGNGTQIYVIDPEPCPDSDASTKGPEVQLVQSGAEVKKPGASVKVSCKASGYTFTKYWLGWVRQAPGQGLEWMGDIYPGYDYTHYNEKFKDRVTLTTDTSTSTAYMELRSLRSDDTAVYYCARSDGSSTYWGQGTLVTVSS
VL: AMHVAQPAVVLASSRGIASFVCEYASPGKYTEVRVTVLRQADSQVTEVCAATYMMGNELTFLDDSICTGTSSGNQVNLTIQGLRAMDTGLYICKVELMYPPPYYEGIGNGTQIYVIDPEPCPDSDTVAAPDVLMTQTPLSLPVTPGEPASISCTSSQNIVHSNGNTYLEWYLQKPGQSPQLLIYKVSNRFSGVPDRFSGSGSGTDFTLKISRVEAEDVGVYYCFQVSHVPYTFGGGTKVEIKR
notes: rDVD-Ig with LEA29Y on both chains; also called RAB007H; RAB007L
B6: RAB008 (other)
VH: B5 VH
VL: DVLMTQTPLSLPVTPGEPASISCTSSQNIVHSNGNTYLEWYLQKPGQSPQLLIYKVSNRFSGVPDRFSGSGSGTDFTLKISRVEAEDVGVYYCFQVSHVPYTFGGGTKVEIKR
notes: rDVD-Ig with LEA29Y on the heavy chain only; also called RAB008H; RAB008L
B7: RAB011 (other)
VH: AMHVAQPAVVLASSRGIASFVCEYASPGKYTEVRVTVLRQADSQVTEVCAATYMMGNELTFLDDSICTGTSSGNQVNLTIQGLRAMDTGLYICKVELMYPPPYYEGIGNGTQIYVIDPEPCPDSDASTKGPQVQLQESGPGLVKPSETLSLTCTVSGFSLIGYDLNWIRQPPGKGLEWIGIIWGDGTTDYNSAVKSRVTISKDTSKNQFSLKLSSVTAADTAVYYCARGGYWYATSYYFDYWGQGTLVTVSS
VL: B1 VL
notes: rDVD-Ig with LEA29Y on the heavy chain only and anti-NGF variable domains; also called RAB011H; RAB011L
B8: RAB012 (other)
VH: B1 VH
VL: AMHVAQPAVVLASSRGIASFVCEYASPGKYTEVRVTVLRQADSQVTEVCAATYMMGNELTFLDDSICTGTSSGNQVNLTIQGLRAMDTGLYICKVELMYPPPYYEGIGNGTQIYVIDPEPCPDSDTVAAPDIQMTQSPSSLSASVGDRVTITCRASQSISNNLNWYQQKPGKAPKLLIYYTSRFHSGVPSRFSGSGSGTDFTFTISSLQPEDIATYYCQQEHTLPYTFGQGTKLEIKR
notes: rDVD-Ig with LEA29Y on the light chain only and anti-NGF variable domains; also called RAB012H; RAB012L
B9: RAB009 (other)
VH: B2 VH
VL: B5 VL
notes: rDVD-Ig with LEA29Y on the light chain only; also called RAB009H; RAB009L

As a reminder, the EC50 is the concentration at which the effect is half-maximal.

In the first experiment the target is NGF. The experiment in a line: cell-based or functional assay.
B1: the “C-terminal Bioassay Mean (IC50, nM): Cell Impedance assay” value was determined as 7.8 nM and the “C-terminal Bioassay Mean (IC50, nM): pERK assay” value was determined as 0.6 nM.

Another experiment concerns the target T1, Recombinant human B7-1/CD80 Fc chimera …. The experiment in a line: direct bind ELISA, coated recombinant human B7-1/CD80 Fc chimera. As to the method: Enzyme Linked Immunosorbent Assays (ELISA) to screen for antibodies that bind a desired target antigen were performed as follows. High bind ELISA plates (Corning Costar #3369, Acton, Mass.) were coated with 100 μL/well of 10 μg/ml of desired target antigen (R&D Systems, Minneapolis, Minn.) or desired target antigen extra-cellular domain/FC fusion protein (R&D Systems, Minneapolis, Minn.) or monoclonal mouse anti-polyHistidine antibody (R&D Systems #MAB050, Minneapolis, Minn.) in phosphate buffered saline (10×PBS, Abbott Bioresearch Center, Media Prep#MPS-073, Worcester, Mass.) overnight at 4° C. Plates were washed four times with PBS containing 0.02% Tween 20. Plates were blocked by the addition of 300 μL/well blocking solution (non-fat dry milk powder, various retail suppliers, diluted to 2% in PBS) for ½ hour at room temperature. Plates were washed four times after blocking with PBS containing 0.02% Tween 20.
One hundred microliters of 10 ng/mL goat anti-human IgG-FC specific HRP conjugated antibody (Southern Biotech #2040-05, Birmingham, Ala.) was added to each well of the desired target antigen plate or anti-polyHistidine antibody/Histidine tagged desired target antigen plate. Alternatively, one hundred microliters of 10 ng/mL goat anti-human IgG-kappa light chain specific HRP conjugated antibody (Southern Biotech #2060-05 Birmingham, Ala.) was added to each well of the desired target antigen/FC fusion plate and incubated for 1 hour at room temperature. Plates were washed 4 times with PBS containing 0.02% Tween 20.
One hundred microliters of enhanced TMB solution (Neogen Corp. #308177, K Blue, Lexington, Ky.) was added to each well and incubated for 10 minutes at room temperature. The reaction was stopped by the addition of 50 μL 1N sulphuric acid. Plates were read spectrophotometrically at a wavelength of 450 nm
In general terms: In an ELISA, binding on a coated surface is turned into a signal by an enzyme label.
Take B2: the EC50 was determined as 2.5 nM.
On the same count and under the same terms, then B3, with 34.9 nM.
For B4, the binding result is “no binding”.

For the next experiment, the target named is T2, Recombinant human B7-2/CD86 Fc chimera …. Nature of the experiment: competitive ELISA; coated CD28 Fc, biotinylated B7-2/CD86 Fc, construct titrated. As to the method:
(§1) ELISA plates (Nunc, MaxiSorp, Rochester, N.Y.) were incubated overnight at 4° C. with Recombinant Human CD28 Fc Chimera (Cat. #342-CD-200). Plates were washed three times in washing buffer (PBS containing 0.05% Tween 20), and blocked for 1 hour at 25° C. in blocking buffer (PBS containing 1% BSA). Wells were washed three times, and serial dilutions of each antibody or DVD-Ig in PBS containing 0.1% BSA were added to the wells and incubated at 25° C. for 1 hour. The wells were washed three times, and biotinylated antigen (2 nM) was added to the plates and incubated for 1 hour at 25° C. The wells were washed three times and incubated for 1 hour at 25° C. with streptavidin-HRP (KPL #474-3000, Gaithersburg, Md.). The wells were washed three times, and 100 μl of ULTRA-TMB ELISA (Pierce, Rockford, Ill.) was added per well. Following color development the reaction was stopped with 1N HCL and absorbance at 450 nm was measured. Recombinant human B7-1/CD80 Fc chimera (Cat. 140-B1-100, R&D Systems, Minneapolis, Minn.) was used.
Recombinant human B7-2/CD86 Fc chimera (Cat. 141-B2-100, R&D Systems, Minneapolis, Minn.) was used.
B5: the EC50 is 2.1 nM.
Same read-out and setting: then B6, with 1 nM; and B7, with 1.3 nM; and B8, with 4.2 nM.
Turning to B2, the EC50 came out at 0.8 nM.
With B9, the EC50 turned out to be 0.3 nM.

The target of the next experiment is T1, Recombinant human B7-1/CD80 Fc chimera …. The experiment in a line: competitive ELISA; coated CD28 Fc, biotinylated B7-1/CD80 Fc (2 nM), construct titrated. As to the method: as §1
Turning to B5, the EC50 stood at 6.6 nM.
Consider B6, for which the EC50 turned out to be 1.5 nM.
The same measure, in the same setting: then B7, with 1.6 nM; and B8, with 2.5 nM; and B2, with 2.4 nM.
Regarding B3, the EC50 stood at 78.9 nM.
Regarding B9, the EC50 was 2.7 nM.
